Reference: patent US20220010008A1

Assays:
[1] = molecular target: recombinant human IL-5 protein (human) (UniProt P05113); test: SPR, human IL-5 immobilized on chip, 1:1 fit
[2] = molecular target: recombinant human IL-5 protein (human) (UniProt P05113); test: SPR, human IL-5 immobilized on CM5 chip, chimeric antibody as analyte, 1:1 global fit

B1: 69F2F3 (murine hybridoma lead antibody) (antibody, V domains shown)
VH: QVQLKQSGPGLVQPSQSLSITCTVSGFSLSNYGVHWVRQSPGKGLEWLGVIWSGGSTDYNAAFKSRLSITKDNSKSQVVFRMNSLQTDDTATYYCARNKDFLDYWGQGTKFTVSS
VL: DIVMTQSPSSLTVTAGEKVTMTCKSSQGLLNSGNQKNYLTWYQQKPGQPPKLLIYWASTRESGVPDRFTGSGSGTDFTLTISSVQAEDLAVYYCQNDYHFPLTFGAGTKLELK
Question: What does the source list for B1?
Answer: Kd [1]: 0.0221 nM; koff [1]: 8.14e-06 s⁻¹; kon [1]: 368000 M⁻¹ s⁻¹

B2: 102A2E11B6 (murine hybridoma lead antibody) (antibody, V domains shown)
VH: QVQLRQSGPGLVQPSQSLSITCTVSGFSLTSYGVHWVRQSPGKGLEWLGVIWSGGSTDYNAVFMSRLSISKDSSKSQVFFKMNSLQTDDTAIYYCARNRYVLDYWGQGTSVTVSS
VL: DIVMTQSPSSLSVSAGERVTMRCKSSQSLLTSGDQKNHLAWYQQKPGQPPKLLIYGASTRESGVPDRFTGSGSGTDFTLTITSVQAEDLAVYYCQNDHSFPLTFGAGTKLELK
Question: How did the Kd [1] turn out when B2 was run?
Answer: The Kd was 0.063 nM.

Question: What about the koff [1] of the same binder?
Answer: Its koff is 2.32e-05 s⁻¹.

Question: What about the kon [1] of the same binder?
Answer: Its kon is 369000 M⁻¹ s⁻¹.

B3: 69F2F3 mouse-human chimeric antibody (antibody, human IgG4, V domains shown)
VH: QVQLKQSGPGLVQPSQSLSITCTVSGFSLSNYGVHWVRQSPGKGLEWLGVIWSGGSTDYNAAFKSRLSITKDNSKSQVVFRMNSLQTDDTATYYCARNKDFLDYWGQGTKFTVSS
VL: DIVMTQSPSSLTVTAGEKVTMTCKSSQGLLNSGNQKNYLTWYQQKPGQPPKLLIYWASTRESGVPDRFTGSGSGTDFTLTISSVQAEDLAVYYCQNDYHFPLTFGAGTKLELK
Question: B3 was tested. Which Kd [2] did it give?
Answer: The Kd was under 0.12 nM.

Question: And the koff [2]?
Answer: The koff was under 1e-05 s⁻¹.

Question: And the kon [2]?
Answer: Its kon is 81900 M⁻¹ s⁻¹.

B4: 102A2E11B6 mouse-human chimeric antibody (antibody, human IgG4, V domains shown)
VH: QVQLRQSGPGLVQPSQSLSITCTVSGFSLTSYGVHWVRQSPGKGLEWLGVIWSGGSTDYNAVFMSRLSISKDSSKSQVFFKMNSLQTDDTAIYYCARNRYVLDYWGQGTSVTVSS
VL: DIVMTQSPSSLSVSAGERVTMRCKSSQSLLTSGDQKNHLAWYQQKPGQPPKLLIYGASTRESGVPDRFTGSGSGTDFTLTITSVQAEDLAVYYCQNDHSFPLTFGAGTKLELK
Question: For B4, which Kd [2] is on record?
Answer: Its Kd is 0.221 nM.

Question: What about the koff [2] of the same binder?
Answer: Its koff is 2.73e-05 s⁻¹.

Question: What about the kon [2] of the same binder?
Answer: Its kon is 124000 M⁻¹ s⁻¹.
